Laboratory results taken from patent US20140370568A1, “Specialized (iso)eugenol-4-O-methyltransferases (s-IEMTs) and Methods of Making and Using the Same” (Brookhaven Science Associates, LLC, priority 2013, published 2014).
Residue numbers refer to the chain shown, from its start. In names and notes the source's numbering stands.

Columns and labels:
[1] = substrate: COc1cc(/C=C/CO)ccc1O; assay: Enzyme kinetics of MOMT9-1 (4-O-methylation of phenolic substrates); assay type: biochemical, C. breweri; conditions: other: MOMT9-1
Source text: (§1) Further shaping of the substrate binding pocket targeting residues Thr-319, Ile-165, Leu-133 and Leu-143 by Iterative Saturation Mutagenesis using MOMT8-1 as the starting point lead to the generation of MOMT9-1 which carried all of the substitutions of MOMT8-1 and an additional substitution of Met for Thr at position 319. Thus MOMT9-1 is a specialized (iso)eugenol-4-O-methyltransferase (s-IEMT) having 6-fold higher specific activity with coniferyl alcohol as the substrate compared to its specific activity with sinapyl alcohol as substrate. The s-IEMT designated MOMT9-1 comprises a specialized (iso)eugenol-4-O-methyltransferase having the following substitutions: T133L/E165I/F175I/F166W/H169F/M26H/S30R/V33S/T319M where amine acid residue numbers correspond to those of SEQ ID NO. 1.
(§2) Each of the s-IEMTs was isolated following expression in bacterial cells of nucleic acid sequences encoding the enzymes. The isolated enzymes were analyzed for their substrate versatility, specificity and enzyme kinetics on various phenolic substrates.

[2] = substrate: COc1cc(/C=C/CO)cc(OC)c1O; assay: as above; assay type: biochemical, C. breweri; conditions: other: MOMT9-1
Source text: as §1, §2

[3] = substrate: COc1cc(/C=C/CO)cc(O)c1O; assay: Enzyme kinetics of MOMT8-2 (4-O-methylation of phenolic substrates); assay type: biochemical, C. breweri; conditions: other: MOMT8-2
Protocol: as §2
(§3) Iso-synapyl alcohol is thought to have the potential to be incorporated into lignin. These two additional specialized IEMT's having eight amino acid substitutions are designated as follows and have the indicated substitutions:
(§4) The specific activity of the various m-IEMT (MOMT-5) and s-IEMTs (MOMT8-2 and MOMT8-3) are shown in Table 4 and enzyme kinetic analysis is shown in Table 5.

[4] = substrate: COc1cc(/C=C/CO)ccc1O; assay: as above; assay type: biochemical, C. breweri; conditions: other: MOMT8-2
Protocol: as §2, §3, §4

[5] = substrate: COc1cc(/C=C/CO)cc(OC)c1O; assay: as above; assay type: biochemical, C. breweri; conditions: other: MOMT8-2
Protocol: as §2, §3, §4

[6] = substrate: COc1cc(/C=C/CO)ccc1O; assay: Enzyme kinetics of MOMT8-1 (4-O-methylation of phenolic substrates); assay type: biochemical, C. breweri; conditions: other: MOMT8-1
Source text: (§5) The first library examined amino acid substitutions at positions not previously explored, i.e., Met-26, Ser-30 and Val-33. The specialized (iso)eugenol-4-O-methyltransferase (s-IEMT) having all of the MOMT-5 substitutions and the additional substitution of His for Met at position 26, Arg for Ser at 30 and Ser for Val at 33 was designated MOMT8-1. The ratio of its activity for methylation of p-coniferyl alcohol versus methylation of p-sinapyl alcohol was 7.5:1 whereas the ratio of activity of MOMT-5 was about 4.2:1.
as §2

[7] = substrate: COc1cc(/C=C/CO)cc(OC)c1O; assay: as above; assay type: biochemical, C. breweri; conditions: other: MOMT8-1
Source text: as §5, §2

[8] = substrate: COc1cc(/C=C/CO)cc(O)c1O; assay: Enzyme kinetics of MOMT-5 (4-O-methylation of phenolic substrates); assay type: biochemical, C. breweri; conditions: other: MOMT-5
Source text: (§6) Starting with a modified (iso)eugenol-4-O-methyltransferase (m-IEMT) previously designated MOMT-5 having the five substitutions Leu for Thr at 133, Ile for Glu at 165, Ile for Phe at 175, Trp for Phe at 166 and Phe for His at 169 (T133L/E165I/F175I/F166W/H169F), where the amino acid residue numbers correspond to those for the C. breweri (iso)eugenol-4-O-methyltransferase protein (SEQ ID NO. 1), the synergistic effects of simultaneously modifying adjacent amino acids located in the substrate binding pocket have been explored. Specialized (iso)eugenol-4-O-methyltransferases (s-IEMTs) were generated that have relatively little activity on sinapyl alcohol compared to activity on p-coniferyl alcohol. Some species of s-IEMT have enhanced activity toward 4-O-methylation of ferulic acid. Additional species of s-IEMT have the capacity to generate iso-sinapyl alcohol. These s-IEMTs are useful for altering lignin precursors in plants, altering lignin composition in plants, and for producing potentially useful chemicals and chemical feedstock in plants as well as in different heterologous expression systems. […]
as §2, §4

[9] = substrate: COc1cc(/C=C/CO)ccc1O; assay: as above; assay type: biochemical, C. breweri; conditions: other: MOMT-5
Source text: as §6, §2, §4

[10] = substrate: COc1cc(/C=C/CO)cc(OC)c1O; assay: as above; assay type: biochemical, C. breweri; conditions: other: MOMT-5
Source text: as §6, §2, §4

[11] = substrate: COc1cc(/C=C/CO)cc(O)c1O; assay: Enzyme kinetics of MOMT8-3 (4-O-methylation of phenolic substrates); assay type: biochemical, C. breweri; conditions: other: MOMT8-3
Protocol: as §2, §3, §4

[12] = substrate: COc1cc(/C=C/CO)ccc1O; assay: as above; assay type: biochemical, C. breweri; conditions: other: MOMT8-3
Protocol: as §2, §3, §4

[13] = substrate: COc1cc(/C=C/CO)cc(OC)c1O; assay: as above; assay type: biochemical, C. breweri; conditions: other: MOMT8-3
Protocol: as §2, §3, §4

[14] = Enzyme kinetics, coniferyl alcohol as substrate; assay type: biochemical; conditions: coniferyl alcohol versus sinapyl alcohol
Protocol: as §2

[15] = Specific activity with 5-hydroxyl coniferyl alcohol (formation of iso-sinapyl alcohol); assay type: biochemical; conditions: substrate 5-hydroxyl coniferyl alcohol; product iso-sinapyl alcohol
Protocol: as §2
Iso-synapyl alcohol is thought to have the potential to be incorporated into lignin. These two additional specialized IEMT's having eight amino acid substitutions are designated as follows and have the indicated substitutions: […]

[16] = Specific activity with ferulic acid as the substrate; assay type: biochemical
Protocol: as §2

B1: C. breweri (iso)eugenol-4-O-methyltransferase (SEQ ID NO. 1) variant MOMT9-1, T133L/E165I/F175I/F166W/H169F/M26H/S30R/V33S/T319M (Clarkia breweri; … (protein)
chain: STGNAEIQIIPTHSSDEEANLFAHQLARAASLPMALKAAIELDVLEIMAKSVPPSGYISPAEIAAQLPTTNPEAPVMLDRVLRLLASYSVVTYTLRELPSGKVERLYGLAPVCKFLTKNEDGVSLAPFLLLATDKVLLEPWFYLKDAILEGGIPFNKAYGMNIWDYFGTDHRINKVFNKGMSSNSTITMKKILEMYNGFEGLTTIVDVGGGTGAVASMIVAKYPSINAINFDLPHVIQDAPAFSGVEHLGGDMFDGVPKGDAIFIKWICHDWSDEHCLKLLKNCYAALPDHGKVIVAEYILPPSPDPSIATKVVIHMDALMLAYNPGGKERTEKEFQALAMASGFRGFKVASCAFNTYVMEFLKTA
Question: For B1, which Km [1] is on record?
Answer: 16.1 ± 1.4 µM

Question: What about the Vmax [1] of the same molecule?
Answer: 88.4 ± 1.7 nmol/mg/min

Question: And the kcat [1]?
Answer: 0.063 ± 0.001 s⁻¹

Question: What about the Km [2] of the same molecule?
Answer: 109.5 ± 4.0 µM

Question: What about the Vmax [2] of the same molecule?
Answer: 24.2 ± 0.3 nmol/mg/min

Question: What about the kcat [2] of the same molecule?
Answer: 0.017 ± 0.0002 s⁻¹

B2: C. breweri (iso)eugenol-4-O-methyltransferase (SEQ ID NO. 1) variant MOMT8-2, T133L/E165I/F175I/F166W/H169F/M26S/S30F/V33Y (Clarkia breweri; … (protein)
chain: B1 chain with H24S, R28F, S31Y, M317T
Question: Which Km [3] does the source give for B2 here?
Answer: 57.9 ± 13.0 µM

Question: What about the Vmax [3] of the same molecule?
Answer: 0.123 µmol/min/mg

Question: What about the kcat [3] of the same molecule?
Answer: 0.088 ± 0.006 s⁻¹

Question: And the kcat/Km [3]?
Answer: 1520 M⁻¹ s⁻¹

Question: And the Km [4]?
Answer: 15.9 ± 1.7 µM

Question: And the Vmax [4]?
Answer: 0.0322 µmol/min/mg

Question: What about the kcat [4] of the same molecule?
Answer: 0.023 ± 0.001 s⁻¹

Question: What about the kcat/Km [4] of the same molecule?
Answer: 1450 M⁻¹ s⁻¹

Question: And the Km [5]?
Answer: 35.2 ± 9.8 µM

Question: And the Vmax [5]?
Answer: 0.0379 µmol/min/mg

Question: And the kcat [5]?
Answer: 0.027 ± 0.002 s⁻¹

Question: And the kcat/Km [5]?
Answer: 767 M⁻¹ s⁻¹

B3: C. breweri (iso)eugenol-4-O-methyltransferase (SEQ ID NO. 1) variant MOMT8-1, T133L/E165I/F175I/F166W/H169F/M26H/S30R/V33S (Clarkia breweri; … (protein)
chain: B1 chain with M317T
Question: Which results are given for B3?
Answer: Km [6]: 16.1 ± 1.3 µM; Vmax [6]: 68.1 ± 1.6 nmol/mg/min; kcat [6]: 0.049 ± 0.001 s⁻¹; Km [7]: 26.3 ± 4.1 µM; Vmax [7]: 8.5 ± 0.3 nmol/mg/min; kcat [7]: 0.006 ± 0.000 s⁻¹

B4: C. breweri (iso)eugenol-4-O-methyltransferase (SEQ ID NO. 1) variant MOMT-5, T133L/E165I/F175I/F166W/H169F (Clarkia breweri; E165I/F166W/F175I/H169F/T133L) (protein)
chain: B1 chain with H24M, R28S, S31V, M317T
Question: Which Km [8] does the source give for B4 here?
Answer: 105.0 ± 11.2 µM

Question: And the Vmax [8]?
Answer: 0.101 µmol/min/mg

Question: What about the kcat [8] of the same molecule?
Answer: 0.072 ± 0.003 s⁻¹

Question: What about the kcat/Km [8] of the same molecule?
Answer: 686 M⁻¹ s⁻¹

Question: And the Km [9]?
Answer: 11.4 ± 1.6 µM

Question: What about the Vmax [9] of the same molecule?
Answer: 96.1 ± 3.8 nmol/mg/min

Question: What about the kcat [9] of the same molecule?
Answer: 0.069 ± 0.009 s⁻¹

Question: What about the Km [10] of the same molecule?
Answer: 14.7 ± 2.3 µM

Question: And the Vmax [10]?
Answer: 46.6 ± 1.5 nmol/mg/min

Question: What about the kcat [10] of the same molecule?
Answer: 0.033 ± 0.001 s⁻¹

B5: C. breweri (iso)eugenol-4-O-methyltransferase (SEQ ID NO. 1) variant MOMT8-3, T133L/E165I/F175I/F166W/H169F/M26S/S30F/V33G (Clarkia breweri; … (protein)
chain: B1 chain with H24S, R28F, S31G, M317T
Question: With B5 as the molecule, how does the Km [11] read?
Answer: 65.4 ± 13.0 µM

Question: And the Vmax [11]?
Answer: 0.145 µmol/min/mg

Question: What about the kcat [11] of the same molecule?
Answer: 0.104 ± 0.006 s⁻¹

Question: And the kcat/Km [11]?
Answer: 1590 M⁻¹ s⁻¹

Question: What about the Km [12] of the same molecule?
Answer: 23.3 ± 2.4 µM

Question: What about the Vmax [12] of the same molecule?
Answer: 0.0735 µmol/min/mg

Question: And the kcat [12]?
Answer: 0.053 ± 0.001 s⁻¹

Question: And the kcat/Km [12]?
Answer: 2270 M⁻¹ s⁻¹

Question: And the Km [13]?
Answer: 35.9 ± 9.8 µM

Question: And the Vmax [13]?
Answer: 0.0515 µmol/min/mg

Question: What about the kcat [13] of the same molecule?
Answer: 0.036 ± 0.003 s⁻¹

Question: What about the kcat/Km [13] of the same molecule?
Answer: 1000 M⁻¹ s⁻¹

B6: MOMT-5: previously generated modified C. breweri (iso)eugenol-4-O-methyltransferase (m-IEMT), substitutions T133L/E165I/F175I/F166W/H169F (protein, UniProt O04385 3-368, looked up, variant T133L E165I F175I F166W H169F)
(Iso)eugenol …: B1 chain with H24M, R28S, S31V, M317T
Question: Which results are given for B6?
Answer: catalytic efficiency (kcat/Km) for coniferyl alcohol higher than for sinapyl alcohol [14]: less than 3 fold; Specific activity with 5-hydroxyl coniferyl alcohol, iso-sinapyl alcohol [15]: 43.5 ± 4.0 nmol/mg/min; Specific activity with ferulic acid as the substrate [16]: 7.84 nmol/min/mg
